Series [1] is described as follows: Elimination by whole animal surface fluorescence imaging. The format is in vivo. Particulars: mice, after injection, n = 6. On the procedure: Surface fluorescence images for representative animals are shown and total surface fluorescence is quantified in bar graphs to the right of the image. […] The pharmacokinetics and biodistributions of these PN’s is further analyzed below.
Figure 3 Role PEG in determining elimination by surface fluorescence imaging. A) Animals were injected with unPEGylated peptide and imaged at the times indicated. Bar graph gives whole animal surface fluorescence determined as means and standard deviations, n = 6.
(§1) A Kodak FX multispectral imaging system was used (Carestream Molecular Imaging, Rochester, NY). Excitation at multiple wavelengths (620, 650, 690, 710, 720, 730, 750 and 760 nm) with the emission at 830 nm was setup for IR-783 spectrum; Excitation at multiple wavelengths (420, 440, 460, 480, 510, 520, 530, and 540 nm) with the emission at 600 nm was setup for Cy3 spectrum; Excitation at multiple wavelengths (450, 470, 510, 520, 530, 540, 550, 570, and 590 nm) with the emission at 700 nm was setup for mCherry; with manufacturer’s software to separate (unmix) the IR-783 spectrum, Cy3 spectrum, or mCherry spectrum from skin autofluorescence and chlorophyll fluorescence from food. X-ray images were taken after fluorescence images. […]
as §1, with “Whole animal surface fluorescence imaging: All animal experiments in this work were approved by the Institutional Review Committee of the Massachusetts General Hospital. […]” for “A Kodak FX multispectral imaging system was used (Carestream Molecular Imaging, Rochester, NY).”

For series [2] the following is noted: mouse, in vivo; for Alpha half-life / Beta half-life / k elim half-life / k perm half-life / k vas return half-life: iv.
Experimental: To assess the relationship between PN dimensions and transcapillary passage, the classic two compartment pharmacokinetic model ( Figure 4A ) [17] was applied to PN(783)10.0 ( Figure 4B ) and PN(783)4.3 ( Figures 4C ).
Groups of 5 nude mice (female; 25–30 g; 6–8 weeks old; nu/nu) were injected (tail vein, IV) with 10 nmole of PN(783)4.3 or PN(783)10.0. 50 µl of blood was collected from tail tip at the indicated times. The blood was processed as above, and diluted (25 µl plasma, 700 µl of PBS). Fluorescence was measured with Cary Eclipse Fluorescence Spectrophotometer, excitation at 765 nm and emission from 790 to 880 nm. The fluorescence intensity at 806 nm was plotted over time, and the data was fit to a biexponential, two phase decay curve. The fast and slow distribution half-life was given by the two phase decay fit with Graphpad Prism software.
From the two phase decay fit, a biexponential equation for blood concentration as a function of time, [drawing 8] , was obtained. By the relation of macro constants and micro constants: [drawing 9] , [drawing 10] , [drawing 11] [drawing 12] , micro constants k's can be obtained, and the half-life was calculated by [drawing 13] , as described in [17]. The curve for interstitium concentration vs. time was fit with MATLAB based on the curve of blood concentration vs. time.
PN pharmacokinetics: Groups of 5 nude mice (female; 25-30g; 6-8 weeks old; nu/nu) were injected (tail vein, IV) with 10 nmole of PN(783)4.3 or PN(783)10.0. 50 μl of blood was collected from tail tip at the indicated times. The blood was processed as above, and diluted (25 μl plasma, 700 μl of PBS). Fluorescence was measured with Cary Eclipse Fluorescence Spectrophotometer, excitation at 765 nm and emission from 790 to 880 nm. The fluorescence intensity at 806 nm was plotted over time, and the data was fit with two-phase decay curve. The fast and slow distribution half-life was given by the two-phase decay fit with Graphpad Prism software.
Two compartment model: From the two-phase decay fit, a biexponential equation for blood concentration as a function of time, [picture] , was obtained. By the relation of macro constants and micro constants, [picture] , [picture] , [picture] , micro constants k's can be obtained, and the half-life was calculated by [picture] , as described in ^5. The curve for interstitium concentration vs. time was fit with MATLAB based on the curve of blood concentration vs. time.
Serum fluorescence data from Figure 3B and Figure 3C was analyzed using the two-compartment model as described ^5. Data were first fit to biexponential equation, yielding values of Alpha, Beta (apparent decay constants) and values of A and B as shown in equations 1 and 2 below.
Series [3] has as its system mCherry expressing HT-29 tumor. The series is described as follows: Intravital two photon microscopy of mCherry expressing HT-29 tumor in dorsal skinfold chamber. The format is in vivo, nude mice. Particulars: 10 nmoles IV. An excerpt:
A feature of PN design is that the fluorochrome can be selected to optimize optical properties for different applications. To image the vascular pharmacokinetic phase with two photon microscopy, PN(497)10.0 was used because its fluorescein is readily excited in the two photon mode. […] To further examine the vascular and interstitial phases, a dorsal skinfold chamber was used for the intravital, two photon microscopy of a mCherry expressing HT-29 tumor ( Figure 5B ).
Dorsal skinfold chamber (DSFC) tumors were grown in female nude mice (nu/nu; 25–30 g; 6–8 weeks old) with modifications from previously published techniques, [35]. 10^6 mCherry-HT-29 tumor cells in matrixgel (BD) were subcutaneously injected in the back of mice ∼1.5 cm left of the dorsal midline approximately halfway from the neck to the tail base. […] On days 2, 3, and 4 days after tumor DSFC implantation, when tumors were typically 3 mm in diameter, image stacks of tumor tissue were recorded under general anesthesia with Ketamine and Xylazine. […]
Multiphoton excitation was obtained through DeepSee and MaiTai Ti:sapphire lasers (Newport/Spectra-Physics) tuned to 920 and 1000 nm to excite all fluorescent probes used. […] Emitted fluorescence was detected through 460/50, 525/50, 595/50, 660/40 band-pass filters and non-descanned detectors to generate four-color images. […]

A further series concerns HT-29 tumor. Kind of series: SPECT/CT and surface fluorescence imaging of the EPR effect of the HT-29 tumor. The format is in vivo, nude mice. The conditions noted are these: 48 h post-injection, mice bearing HT-29 tumors.

For the substance “(DOTA)Lys(PEG 5 kDa)-Cys(IR-783) [PN(783)4.3]”, in series [1], the “Elimination seen by whole animal surface fluorescence” value was “bladder accumulation (arrow) at only 20 minutes post injection”. Besides, in series [2], the “k perm expressed as a half-life” value was 0.395 h, the Alpha half-life is 0.13 h, the Beta half-life amounted to 1.64 h and the k elim half-life came to 1.01 h. In series [2], the k perm half-life came to 0.40 h and the “k vas return half-life” value was determined as 0.20 h.

“(DOTA)Lys(PEG 30 kDa)-Cys(Fl) [PN(497)10.0, PEG-like Nanoprobe: 30 kDa PEG, fluorescein, DOTA peptide]”: the “Localisation by intravital microscopy, interstitial phase” value in series [3] (20 h post-injection) is listed as “seen in the interstitium at the tumor periphery”. The “Localisation by intravital microscopy, vascular phase” value in series [3] (ten minutes post-injection) is reported as “confined to the vasculature”.

As to “(DOTA)Lys(PEG 30 kDa)-Cys(IR-783) [PN(783)10.0, PEG-like Nanoprobe: 30 kDa PEG, IR-783 fluorochrome, DOTA peptide]”, in series [1], the “Elimination seen by whole animal surface fluorescence” value is “excellent elimination at 48 h”. In addition, in series [2], the Alpha half-life was 0.51 h, the Beta half-life stood at 7.0 h, the k elim half-life was found to be 4.2 h and the k perm half-life is recorded as 1.02 h. In series [2], the “k vas return half-life” value is 1.23 h. The “Distribution by SPECT and surface fluorescence” value in the series on HT-29 tumor was “seen only in the tumor”.
